The source of these data is US20140086935A1 (Bayer, published 2014).

In assay [1] the target is T1, rat TIMP-1 (rat, UniProt P30120 24-217). Put plainly: cell-based or functional assay.
Assay [2] has as its target T2, human TIMP-1 (human, UniProt P01033 24-207). Description: cell-based or functional assay.
Assay [3] has as its target T1, rat TIMP-1. Put plainly: SPR (BIAcore), TIMP-1 coupled to chip, monovalent Fab. As for the experimental part: (§1) For affinity determination, monomeric fractions of affinity and SEC purified Fab fragments or purified IgG1 molecules were used. All experiments were conducted in HBS buffer at a flow rate of 20 μl/min at 25° C. on a BIAcore™ instrument. Antigens in 100 mM sodium acetate pH 5.0 were coupled to a CM 5 sensor chip using standard EDC-NHS coupling chemistry. […] All sensograms were fitted globally using BIA evaluation software. For monovalent Fab fragments a monovalent fit (Langmuir binding) and for IgGs a bivalent fit was applied.
A general note: SPR reads the build-up and loss of mass on a sensor chip optically.

Assay [4] deals with T2, human TIMP-1. Described as above. On the procedure:
as §1

In assay [5] the target is T1, rat TIMP-1. The assay is described as above. As for the experimental part:
as §1
The source holds these as a separate data set.

The target in assay [6] is T1, rat TIMP-1. Put plainly: cell-based or functional assay. This is another data set of the same source.
The target of assay [7] is T2, human TIMP-1. Description: SPR (BIAcore), TIMP-1 coupled to chip, monovalent Fab. As for the experimental part:
as §1
The source holds these as a separate data set.

Assay [8] has as its target T1, rat TIMP-1. Put plainly: cell-based or functional assay. This is another data set of the same source.
Assay [9] addresses T2, human TIMP-1. Description: SPR (BIAcore), TIMP-1 coupled to chip, monovalent Fab. As for the experimental part:
as §1
The source holds these as a separate data set.

For assay [10], the target named is T2, human TIMP-1. Description: cell-based or functional assay. This is another data set of the same source.
Assay [11] has as its target T2, human TIMP-1. Put plainly: cell-based or functional assay. This is another data set of the same source.
Assay [12] addresses T2, human TIMP-1. Put plainly: cell-based or functional assay. The source holds these as a separate data set.

Numbering of substitutions follows the chain as printed. Read-outs that look alike come from different tables or passages of the source. Bounds are passed on as bounds.

T1 sequence (P30120 24-217 limits assumed): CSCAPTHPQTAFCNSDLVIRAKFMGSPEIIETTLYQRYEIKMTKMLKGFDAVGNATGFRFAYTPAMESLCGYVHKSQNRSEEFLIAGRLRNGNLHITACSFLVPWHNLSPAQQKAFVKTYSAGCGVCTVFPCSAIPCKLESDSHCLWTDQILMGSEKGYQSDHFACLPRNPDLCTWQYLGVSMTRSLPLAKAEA

B1: MS-BW-21 (Fab, V domains shown)
VH: QVQLVQSGAEVKKPGSSVKVSCKASGGTFSSYAISWVRQAPGQGLEWMGGIIPIFGTANYAQKFQGRVTITADESTSTAYMELSSLRSEDTAVYYCARYIGYTNVMDIRPGFYLDYWGQGTLVTVSS
VL: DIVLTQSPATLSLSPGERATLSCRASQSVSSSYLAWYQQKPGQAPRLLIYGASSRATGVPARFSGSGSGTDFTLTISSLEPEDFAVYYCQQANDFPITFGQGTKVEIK
As usually defined, the Kd is a measure of binding affinity in units of concentration. On to B1, for which the “IC50 in rat protease assay” value in assay [1] and in [6] was 67 nM in each case. Also, the “IC50 in human protease assay” value in [2] was above 300 nM. In addition, the Kd in [3] stood at 36 nM; in assay [4] it was 520 nM; in [5] it was 36 nM.

B2: MS-BW-38 (Fab, V domains shown)
VH: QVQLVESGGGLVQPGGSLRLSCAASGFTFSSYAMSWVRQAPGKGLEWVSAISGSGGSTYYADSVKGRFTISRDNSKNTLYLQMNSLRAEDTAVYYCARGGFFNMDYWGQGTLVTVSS
VL: DIALTQPASVSGSPGQSITISCTGTSSDVGGYNYVSWYQQHPGKAPKLMIYDVSNRPSGVSNRFSGSKSGNTASLTISGLQAEDEADYYCQSYDFTYGSVFGGGTKLTVLG
notes: Fab, FLAG + Strep-tag II; not tied by name
Regarding B2, the “IC50 in rat protease assay” value in assay [1] and in assay [6] was above 300 nM in each case. In addition, in assay [2], the “IC50 in human protease assay” value was around 11 nM. For the same molecule, the Kd in assay [3] was around 353 nM; in [4] it was around 3 nM; in [5] it was around 353 nM.

B3: MS-BW-27 (Fab, V domains shown)
VH: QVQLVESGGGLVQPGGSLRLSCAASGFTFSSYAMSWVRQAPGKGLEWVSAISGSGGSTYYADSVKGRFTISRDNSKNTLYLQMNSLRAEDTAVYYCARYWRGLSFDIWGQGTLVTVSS
VL: B2 VL with T96Y, Y97K, G98F, S99N
notes: as for B2
With B3, the equilibrium dissociation constant (Kd) in assay [7] and in assay [4] was around 74 nM in each case.

B4: MS-BW-26 (Fab, V domains shown)
VH: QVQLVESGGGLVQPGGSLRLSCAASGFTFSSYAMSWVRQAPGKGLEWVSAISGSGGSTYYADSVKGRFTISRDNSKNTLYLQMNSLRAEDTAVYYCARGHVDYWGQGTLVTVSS
VL: B2 VL with T96V, Y97R, G98F, S99M
notes: as for B2
B4: the Kd in assay [7] is around 100 nM.

B5: MS-BW-54 (Fab, V domains shown)
VH: QVQLVQSGAEVKKPGESLKISCKGSGYSFTSYWIGWVRQMPGKGLEWMGIIYPGDSDTRYSPSFQGQVTISADKSISTAYLQWSSLKASDTAMYYCARYYGFEYDLLFDNWGQGTLVTVSS
VL: B2 VL with F95I, T96S, Y97G, G98Y, S99P
notes: as for B2
In the case of B5, the Kd in assay [3] and in [5] was 9 nM in each case. Further, the “IC50 in rat protease assay” value in assay [6] and in assay [8] was 7 nM throughout.

B6: MS-BW-60 (Fab, V domains shown)
VH: QVQLVQSGAEVKKPGESLKISCKGSGYSFTSYWIGWVRQMPGKGLEWMGIIYPGDSDTRYSPSFQGQVTISADKSISTAYLQWSSLKASDTAMYYCARFVSYNGSVPYFDYWGQGTLVTVSS
VL: B2 VL with Y93M, T96R, Y97L, G98M, S99H
notes: as for B2
In the case of B6, the Kd in [5] is around 30 nM. The “IC50 in rat protease assay” value in assay [6] was above 100 nM.

B7: MS-BW-61 (Fab, V domains shown)
VH: QVQLVQSGAEVKKPGESLKISCKGSGYSFTSYWIGWVRQMPGKGLEWMGIIYPGDSDTRYSPSFQGQVTISADKSISTAYLQWSSLKASDTAMYYCARIIGDYVIFFDVWGQGTLVTVSS
VL: B2 VL with Y93F, F95M, T96I, Y97H, G98P, S99Y
notes: as for B2
In the case of B7, the Kd in assay [5] is around 51 nM. Also, in assay [6], the “IC50 in rat protease assay” value was above 100 nM.

B8: MS-BW-44-2-16 (Fab, V domains shown)
VH: QVQLVESGGGLVQPGGSLRLSCAASGFTFSSYAMSWVRQAPGKGLEWVSGISGNGVLIFYADSVKGRFTISRDNSKNTLYLQMNSLRAEDTAVYYCARWFDVWGQGTLVTVSS
VL: B2 VL with T96V, Y97R, G98F, S99M
notes: Fab
Turning to B8, the Kd in assay [9] came out at 0.5 nM. Further, the “IC50 in human protease assay (modified, decreased TIMP-1 and MMP-1)” value in assay [10] came to 0.3 nM.

B9: MS-BW-45 (Fab, V domains shown)
VH: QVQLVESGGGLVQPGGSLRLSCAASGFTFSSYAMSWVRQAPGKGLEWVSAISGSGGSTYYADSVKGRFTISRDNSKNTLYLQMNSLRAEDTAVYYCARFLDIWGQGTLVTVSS
VL: B2 VL with T96Y, Y97K, G98F, S99N
notes: Fab: heavy chain of MS-BW-3 with light chain of MS-BW-27; not tied by name
In assay [4], B9 displayed a Kd of 8 nM. Also, the “IC50 in human protease assay” value in assay [11] was 9 nM.

B10: MS-BW-46 (Fab, V domains shown)
VH: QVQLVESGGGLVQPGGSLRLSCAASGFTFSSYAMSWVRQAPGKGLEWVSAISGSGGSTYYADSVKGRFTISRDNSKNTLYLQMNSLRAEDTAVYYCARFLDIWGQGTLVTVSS
VL: B2 VL with T96R, Y97R, G98F
notes: Fab: heavy chain of MS-BW-3 with light chain of MS-BW-28; not tied by name
Regarding B10, the Kd in assay [4] was determined as 6 nM. In assay [11], the “IC50 in human protease assay” value came to 4 nM.

B11: MS-BW-49 (Fab, V domains shown)
VH: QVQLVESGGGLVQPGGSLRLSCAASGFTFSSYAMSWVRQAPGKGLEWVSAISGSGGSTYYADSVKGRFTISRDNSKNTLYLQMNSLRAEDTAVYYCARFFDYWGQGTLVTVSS
VL: B2 VL with T96K, Y97T, G98Y, S99L
notes: Fab: heavy chain of MS-BW-28 with light chain of MS-BW-2; not tied by name
In the case of B11, the Kd in assay [4] was around 21 nM. Besides, the “IC50 in human protease assay” value in assay [11] is above 100 nM.

B12: MS-BW-40 (Fab, V domains shown)
VH: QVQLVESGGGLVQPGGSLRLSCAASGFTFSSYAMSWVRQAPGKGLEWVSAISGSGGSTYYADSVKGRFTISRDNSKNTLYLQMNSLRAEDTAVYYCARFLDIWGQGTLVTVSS
VL: B2 VL with F95Y, T96Q, Y97Q, G98F, S99T
notes: Fab: heavy chain of MS-BW-3 with light chain of MS-BW-1; not tied by name
The molecule B12 displayed a Kd in assay [4] of around 49 nM. Moreover, the “IC50 in human protease assay” value in [11] was above 100 nM.

B13: MS-BW-54-1 (Fab, V domains shown)
VH: B5 VH
VL: B2 VL with V29L, D52A, V53G, S54N, S92A, F95S, T96S, Y97G, G98Y, S99P
notes: Fab from LCDR1, -2, -3 optimization of MS-BW-54
B13 showed a Kd in [3] of 2 nM. For the same molecule, the “IC50 in rat protease assay” value in [8] turned out to be 3 nM.

B14: MS-BW-44-2-15 (Fab, V domains shown)
VH: B8 VH with V102H
VL: B2 VL with T96V, Y97R, G98F, S99M
notes: Fab
In turn, B14 showed an equilibrium dissociation constant (Kd) in [9] of 0.3 nM. Further, in assay [10], the “IC50 in human protease assay (modified, decreased TIMP-1 and MMP-1)” value turned out to be 0.2 nM.

B15: MS-BW-1 (Fab, V domains shown)
VH: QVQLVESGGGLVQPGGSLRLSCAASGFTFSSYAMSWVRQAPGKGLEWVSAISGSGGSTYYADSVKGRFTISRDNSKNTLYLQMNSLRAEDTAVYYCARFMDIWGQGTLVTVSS
VL: B2 VL with F95Y, T96Q, Y97Q, G98F, S99T
notes: as for B2
B15 registered a Kd in assay [7] of 65 nM. For the same molecule, the “IC50 in human protease assay” value in [12] is above 100 nM.

B16: MS-BW-2 (Fab, V domains shown)
VH: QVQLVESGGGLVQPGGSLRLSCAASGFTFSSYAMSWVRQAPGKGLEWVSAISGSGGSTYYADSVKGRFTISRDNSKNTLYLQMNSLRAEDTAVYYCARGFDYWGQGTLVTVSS
VL: B2 VL with T96K, Y97T, G98Y, S99L
notes: as for B2
For the molecule B16, in [7], binding was put at a Kd of 180 nM. Moreover, the “IC50 in human protease assay” value in assay [12] was above 100 nM.

B17: MS-BW-51 (Fab, V domains shown)
VH: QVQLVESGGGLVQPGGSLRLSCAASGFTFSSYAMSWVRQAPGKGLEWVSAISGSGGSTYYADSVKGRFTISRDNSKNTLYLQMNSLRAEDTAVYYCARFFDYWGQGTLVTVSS
VL: B2 VL with T96I, Y97N, G98V, S99I
notes: Fab: heavy chain of MS-BW-28 with light chain of MS-BW-25; not tied by name
As for B17, the Kd in assay [4] is around 7 nM. For the same molecule, in assay [11], the “IC50 in human protease assay” value is 7 nM.

B18: MS-BW-43 (Fab, V domains shown)
VH: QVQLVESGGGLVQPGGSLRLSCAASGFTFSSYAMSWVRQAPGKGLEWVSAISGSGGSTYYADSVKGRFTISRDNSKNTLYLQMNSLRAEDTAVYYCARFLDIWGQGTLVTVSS
VL: B2 VL with T96I, Y97N, G98V, S99I
notes: Fab: heavy chain of MS-BW-3 with light chain of MS-BW-25; not tied by name
Regarding B18, the Kd in assay [4] was around 65 nM. Besides, the “IC50 in human protease assay” value in [11] was above 100 nM.

B19: MS-BW-28 (Fab, V domains shown)
VH: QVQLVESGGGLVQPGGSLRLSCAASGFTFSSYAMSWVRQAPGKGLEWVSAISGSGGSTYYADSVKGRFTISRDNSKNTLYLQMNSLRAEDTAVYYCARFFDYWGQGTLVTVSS
VL: B2 VL with T96R, Y97R, G98F
notes: as for B2
B19 yielded a Kd in assay [7] of 10 nM. The “IC50 in human protease assay” value in assay [12] worked out at 22 nM.

B20: MS-BW-47 (Fab, V domains shown)
VH: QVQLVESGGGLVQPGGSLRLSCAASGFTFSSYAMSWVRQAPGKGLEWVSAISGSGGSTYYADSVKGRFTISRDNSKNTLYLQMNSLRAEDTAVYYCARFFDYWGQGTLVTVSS
VL: B2 VL with F95Y, T96Q, Y97Q, G98F, S99T
notes: Fab: heavy chain of MS-BW-28 with light chain of MS-BW-1; not tied by name
B20 registered a Kd in [4] of around 152 nM. In addition, the “IC50 in human protease assay” value in assay [11] was above 100 nM.

B21: MS-BW-41 (Fab, V domains shown)
VH: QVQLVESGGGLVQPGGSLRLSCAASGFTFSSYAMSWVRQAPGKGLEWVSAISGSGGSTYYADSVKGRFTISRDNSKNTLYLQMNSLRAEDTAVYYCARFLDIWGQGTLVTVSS
VL: B2 VL with T96K, Y97T, G98Y, S99L
notes: Fab: heavy chain of MS-BW-3 with light chain of MS-BW-2; not tied by name
In [4], B21 came in with a Kd of around 6 nM. For the same molecule, the “IC50 in human protease assay” value in assay [11] stood at 29 nM.

B22: MS-BW-52 (Fab, V domains shown)
VH: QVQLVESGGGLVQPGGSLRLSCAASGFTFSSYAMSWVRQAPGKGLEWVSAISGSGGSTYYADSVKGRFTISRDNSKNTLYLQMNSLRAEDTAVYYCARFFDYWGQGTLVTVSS
VL: B2 VL with T96V, Y97R, G98F, S99M
notes: Fab: heavy chain of MS-BW-28 with light chain of MS-BW-26; not tied by name
In assay [4], B22 returned a Kd of around 11 nM. In addition, in [11], the “IC50 in human protease assay” value was determined as 9 nM.

B23: MS-BW-39 (Fab, V domains shown)
VH: QVQLVQSGAEVKKPGSSVKVSCKASGGTFSSYAISWVRQAPGQGLEWMGGIIPIFGTANYAQKFQGRVTITADESTSTAYMELSSLRSEDTAVYYCARGYIPYHLFDYWGQGTLVTVSS
VL: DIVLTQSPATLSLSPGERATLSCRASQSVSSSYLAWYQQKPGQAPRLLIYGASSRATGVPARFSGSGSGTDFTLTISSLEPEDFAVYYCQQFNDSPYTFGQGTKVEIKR
notes: as for B2
Take B23: the “IC50 in rat protease assay” value in assay [1] and in [6] was above 100 nM in each case. For the same molecule, the Kd in [3] and in assay [5] was around 108 nM each time.

B24: MS-BW-17 (Fab, V domains shown)
VH: QVQLVQSGAEVKKPGESLKISCKGSGYSFTSYWIGWVRQMPGKGLEWMGIIYPGDSDTRYSPSFQGQVTISADKSISTAYLQWSSLKASDTAMYYCARLTNYFDSIYYDHWGQGTLVTVSS
VL: DIALTQPASVSGSPGQSITISCTGTSSDVGGYNYVSWYQQHPGKAPKLMIYDVSNRPSGVSNRFSGSKSGNTASLTISGLQAEDEADYYCQSYDPSHPSKVFGGGTKLTVLG
notes: as for B2
In the case of B24, the equilibrium dissociation constant (Kd) in assay [3] and in assay [5] was 13 nM in each case. The “IC50 in rat protease assay” value in [6] and in [8] was 11 nM throughout.

B25: MS-BW-17-2 (Fab, V domains shown)
VH: B24 VH
VL: B24 VL with S92A, Y93F, D94A, P95V, S96M, H97P, P98N, S99V, K100E
notes: Fab from LCDR3 optimization of MS-BW-17
Consider B25, for which the Kd in [3] came out at 1.3 nM. Also, the “IC50 in rat protease assay” value in assay [8] amounted to 1.1 nM.

B26: MS-BW-17-3 (Fab, V domains shown)
VH: B24 VH
VL: B24 VL with Y93F, D94T, P95V, H97P, P98G, S99A, K100D
notes: as for B25
B26 came in with a Kd in [3] of 1.9 nM. For the same molecule, in [8], the “IC50 in rat protease assay” value was 3 nM.
